Experimental data from US20240294593A1 (Genentech, published 2024).
Where two headings read alike, the source gives them in different places.

Experiments:
human PD-1-His [1] = target: T1, human PD-1-His (human, UniProt Q15116 25-167, limits assumed); experiment: Octet (BLI) sensorgram; XENP29708 loaded on the biosensor, analyte Sample ID XENP15593 at 300, 30, 3 nM [Cont.]
T1 construct: Antigen of the Octet assays; not shown: His tag

human PD-1-His [2] = target: T1, human PD-1-His; experiment: Octet (BLI) sensorgram; XENP29710 loaded on the biosensor, analyte Sample ID XENP15593 at 300, 30, 3 nM [Cont.]
human PD-1-His [3] = target: T1, human PD-1-His; experiment: Octet (BLI) sensorgram; XENP29711 loaded on the biosensor, analyte Sample ID XENP15593 at 300, 30, 3 nM [Cont.]
human PD-1-His [4] = target: T1, human PD-1-His; experiment: Octet (BLI) sensorgram; XENP29712 loaded on the biosensor, analyte Sample ID XENP15593 at 300, 30, 3 nM [Cont.]
human PD-1-His [5] = target: T1, human PD-1-His; experiment: Octet (BLI) sensorgram; XENP29713 loaded on the biosensor, analyte Sample ID XENP15593 at 300, 30, 3 nM [Cont.]
human PD-1-His [6] = target: T1, human PD-1-His; experiment: Octet (BLI) sensorgram; XENP29714 loaded on the biosensor, analyte Sample ID XENP15593 at 300, 30, 3 nM [Cont.]
cynomolgus PD-1-His [7] = target: T2, cynomolgus PD-1-His (cynomolgus monkey); experiment: sensorgram, panel Cyno PD-1; Octet per legend paragraph 199, axes printed as Response (RU) against Time
T2 chain: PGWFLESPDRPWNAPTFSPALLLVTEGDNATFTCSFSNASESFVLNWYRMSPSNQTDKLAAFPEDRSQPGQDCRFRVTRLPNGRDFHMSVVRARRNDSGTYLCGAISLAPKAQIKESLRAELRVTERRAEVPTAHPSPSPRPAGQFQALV

human PD-1-His [8] = target: T1, human PD-1-His; experiment: sensorgram, panel Human PD-1; Octet per legend paragraph 199, axes printed as Response (RU) against Time (s)
cynomolgus PD-1-His [9] = target: T2, cynomolgus PD-1-His; experiment: sensorgram, panel Cyno PD-1; Octet per legend paragraph 199, axes printed as Response (RU) against Time
human PD-1-His [10] = target: T1, human PD-1-His; experiment: sensorgram, panel Human PD-1; Octet per legend paragraph 199, axes printed as Response (RU) against Time (s); remark: listed apart in the source

T1 sequence (Q15116 25-167 limits assumed): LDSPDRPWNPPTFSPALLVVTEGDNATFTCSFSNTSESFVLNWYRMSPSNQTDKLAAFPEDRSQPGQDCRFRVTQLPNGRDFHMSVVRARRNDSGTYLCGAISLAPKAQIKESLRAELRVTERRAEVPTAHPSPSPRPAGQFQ

B1: XENP29708 (W100Y) (antibody, V domains shown)
VH: EVQLVESGGGLVQPGGSLRLSCAASGFTFSSFGMHWVRQAPGKGLEWVSYISSGSSIIYYADSVKGRFTISRDNAKNSLYLQMNSLRAEDTAVYYCARGGRLVYSPDYWGQGTLVTVSS
VL: DIVMTQSPDSLAVSLGERATINCKSSQSLLNSGNQKNYLTWYQQKPGQPPKLLIYWASTRESGVPDRFTGSGSGTDFTLTISSLQAEDVAVYYCQNDYSYPFTFGSGTKLEIKR
notes: the panel label gives the substitution; also called mAb C[PD-1]_H1L1 W100Y (Kabat) variant; copies: 2 + 2
- binding result (human PD-1-His [1]): no binding (tested: 300 nM)

B2: XENP29710 (W100H) (antibody, V domains shown)
VH: EVQLVESGGGLVQPGGSLRLSCAASGFTFSSFGMHWVRQAPGKGLEWVSYISSGSSIIYYADSVKGRFTISRDNAKNSLYLQMNSLRAEDTAVYYCARGGRLVHSPDYWGQGTLVTVSS
VL: DIVMTQSPDSLAVSLGERATINCKSSQSLLNSGNQKNYLTWYQQKPGQPPKLLIYWASTRESGVPDRFTGSGSGTDFTLTISSLQAEDVAVYYCQNDYSYPFTFGSGTKLEIKR
notes: the panel label gives the substitution; also called mAb C[PD-1]_H1L1 W100H (Kabat) variant; copies: 2 + 2
- binding result (human PD-1-His [2]): no binding (tested: 300 nM)

B3: XENP29711 (W100Q) (antibody, V domains shown)
VH: EVQLVESGGGLVQPGGSLRLSCAASGFTFSSFGMHWVRQAPGKGLEWVSYISSGSSIIYYADSVKGRFTISRDNAKNSLYLQMNSLRAEDTAVYYCARGGRLVQSPDYWGQGTLVTVSS
VL: DIVMTQSPDSLAVSLGERATINCKSSQSLLNSGNQKNYLTWYQQKPGQPPKLLIYWASTRESGVPDRFTGSGSGTDFTLTISSLQAEDVAVYYCQNDYSYPFTFGSGTKLEIKR
notes: the panel label gives the substitution; also called mAb C[PD-1]_H1L1 W100Q (Kabat) variant; copies: 2 + 2
- binding result (human PD-1-His [3]): no binding (tested: 300 nM)

B4: XENP29712 (W100S) (antibody, V domains shown)
VH: EVQLVESGGGLVQPGGSLRLSCAASGFTFSSFGMHWVRQAPGKGLEWVSYISSGSSIIYYADSVKGRFTISRDNAKNSLYLQMNSLRAEDTAVYYCARGGRLVSSPDYWGQGTLVTVSS
VL: DIVMTQSPDSLAVSLGERATINCKSSQSLLNSGNQKNYLTWYQQKPGQPPKLLIYWASTRESGVPDRFTGSGSGTDFTLTISSLQAEDVAVYYCQNDYSYPFTFGSGTKLEIKR
notes: the panel label gives the substitution; also called mAb C[PD-1]_H1L1 W100S (Kabat) variant; copies: 2 + 2
- binding result (human PD-1-His [4]): no binding (tested: 300 nM)

B5: XENP29713 (W100E) (antibody, V domains shown)
VH: EVQLVESGGGLVQPGGSLRLSCAASGFTFSSFGMHWVRQAPGKGLEWVSYISSGSSIIYYADSVKGRFTISRDNAKNSLYLQMNSLRAEDTAVYYCARGGRLVESPDYWGQGTLVTVSS
VL: DIVMTQSPDSLAVSLGERATINCKSSQSLLNSGNQKNYLTWYQQKPGQPPKLLIYWASTRESGVPDRFTGSGSGTDFTLTISSLQAEDVAVYYCQNDYSYPFTFGSGTKLEIKR
notes: the panel label gives the substitution; also called mAb C[PD-1]_H1L1 W100E (Kabat) variant; copies: 2 + 2
- binding result (human PD-1-His [5]): no binding (tested: 300 nM)

B6: XENP29714 (W100R) (antibody, V domains shown)
VH: EVQLVESGGGLVQPGGSLRLSCAASGFTFSSFGMHWVRQAPGKGLEWVSYISSGSSIIYYADSVKGRFTISRDNAKNSLYLQMNSLRAEDTAVYYCARGGRLVRSPDYWGQGTLVTVSS
VL: DIVMTQSPDSLAVSLGERATINCKSSQSLLNSGNQKNYLTWYQQKPGQPPKLLIYWASTRESGVPDRFTGSGSGTDFTLTISSLQAEDVAVYYCQNDYSYPFTFGSGTKLEIKR
notes: the panel label gives the substitution; also called mAb C[PD-1]_H1L1 W100R (Kabat) variant; copies: 2 + 2
- binding result (human PD-1-His [6]): no binding (tested: 300 nM)

B7: XENP31986 (mAb C H1_L1.1 x IL-15[D30N/E64Q/N65D/N71Q/N79Q/N112Q] w/(G4A) Linker) (Fc fusion)
chain: ITCPPPMSVEHADIWVKSYSLYSRERYICNSGFKRKAGTSSLTECVLNKATNVAHWTTPSLKCIRGGGGAGGGGAGGGGAGGGGAGGGGANWVNVISDLKKIEDLIQSMHIDATLYTESNVHPSCKVTAMKCFLLELQVISLESGDASIHDTVQDLIILAQNSLSSNGQVTESGCKECEELEEKNIKEFLQSFVHIVQMFIQTSEPKSSDKTHTCPPCPAPPVAGPSVFLFPPKPKDTLMISRTPEVTCVVVDVKHEDPEVKFNWYVDGVEVHNAKTKPREEEYNSTYRVVSVLTVLHQDWLNGKEYKCKVSNKALPAPIEKTISKAKGQPREPQVYTLPPSREEMTKNQVSLTCDVSGFYPSDIAVEWESDGQPENNYKTTPPVLDSDGSFFLYSKLTVDKSRWEQGDVFSCSVLHEALHSHYTQKSLSLSPGK
heavy: EVQLVESGGGLVQPGGSLRLSCAASGFTFSSFGMHWVRQAPGKGLEWVSYISSGSSIIYYADSVKGRFTISRDNAKNSLYLQMNSLRAEDTAVYYCARGGRLVWSPDYWGQGTLVTVSSASTKGPSVFPLAPSSKSTSGGTAALGCLVKDYFPEPVTVSWNSGALTSGVHTFPAVLQSSGLYSLSSVVTVPSSSLGTQTYICNVNHKPSNTKVDKKVEPKSCDKTHTCPPCPAPPVAGPSVFLFPPKPKDTLMISRTPEVTCVVVDVKHEDPEVKFNWYVDGVEVHNAKTKPREEQYNSTYRVVSVLTVLHQDWLNGKEYKCKVSNKALPAPIEKTISKAKGQPREPQVYTLPPSREQMTKNQVKLTCLVKGFYPSDIAVEWESNGQPENNYKTTPPVLDSDGSFFLYSKLTVDKSRWQQGNVFSCSVLHEALHSHYTQKSLSLSPGK
light: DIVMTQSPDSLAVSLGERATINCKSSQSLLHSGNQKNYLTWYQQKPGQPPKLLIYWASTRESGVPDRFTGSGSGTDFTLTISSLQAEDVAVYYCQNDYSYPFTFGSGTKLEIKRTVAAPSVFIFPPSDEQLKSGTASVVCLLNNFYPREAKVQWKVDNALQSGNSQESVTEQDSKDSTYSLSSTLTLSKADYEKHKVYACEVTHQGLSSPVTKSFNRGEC
notes: scIL-15/Rα x Fab format
- Kd (cynomolgus PD-1-His [7]): 4.5 nM
- Kd (human PD-1-His [8]): 4.3 nM

B8: XENP32435 (PD-1-targeted IL-15/Rα-Fc having Trp engineered/affinity repaired mAb C[PD1]_H1.176_L1.140 and IL-15[D30N/E64Q/N65D/N71Q/N79Q/N112Q]) (Fc fusion)
chain: ITCPPPMSVEHADIWVKSYSLYSRERYICNSGFKRKAGTSSLTECVLNKATNVAHWTTPSLKCIRGGGGAGGGGAGGGGAGGGGAGGGGANWVNVISDLKKIEDLIQSMHIDATLYTESNVHPSCKVTAMKCFLLELQVISLESGDASIHDTVQDLIILAQNSLSSNGQVTESGCKECEELEEKNIKEFLQSFVHIVQMFIQTSEPKSSDKTHTCPPCPAPPVAGPSVFLFPPKPKDTLMISRTPEVTCVVVDVKHEDPEVKFNWYVDGVEVHNAKTKPREEEYNSTYRVVSVLTVLHQDWLNGKEYKCKVSNKALPAPIEKTISKAKGQPREPQVYTLPPSREEMTKNQVSLTCDVSGFYPSDIAVEWESDGQPENNYKTTPPVLDSDGSFFLYSKLTVDKSRWEQGDVFSCSVLHEALHSHYTQKSLSLSPGK
heavy: EVQLVESGGGLVQPGGSLRLSCAASGFTFSSLGMHWVRQAPGKGLEWVSYISSGSSIIYYADSVKGRFTISRDNAKNSLYLQMNSLRAEDTAVYYCARGGRLVFSPDYWGQGTLVTVSSASTKGPSVFPLAPSSKSTSGGTAALGCLVKDYFPEPVTVSWNSGALTSGVHTFPAVLQSSGLYSLSSVVTVPSSSLGTQTYICNVNHKPSNTKVDKKVEPKSCDKTHTCPPCPAPPVAGPSVFLFPPKPKDTLMISRTPEVTCVVVDVKHEDPEVKFNWYVDGVEVHNAKTKPREEQYNSTYRVVSVLTVLHQDWLNGKEYKCKVSNKALPAPIEKTISKAKGQPREPQVYTLPPSREQMTKNQVKLTCLVKGFYPSDIAVEWESNGQPENNYKTTPPVLDSDGSFFLYSKLTVDKSRWQQGNVFSCSVLHEALHSHYTQKSLSLSPGK
light: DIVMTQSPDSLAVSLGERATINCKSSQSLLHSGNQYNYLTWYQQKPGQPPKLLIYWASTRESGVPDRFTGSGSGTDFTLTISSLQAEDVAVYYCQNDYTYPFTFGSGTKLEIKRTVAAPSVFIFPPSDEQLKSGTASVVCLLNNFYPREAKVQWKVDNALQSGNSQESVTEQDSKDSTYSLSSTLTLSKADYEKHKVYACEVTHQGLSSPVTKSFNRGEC
- Kd (cynomolgus PD-1-His [9]): 2.7 nM
- Kd (human PD-1-His [10]): 2.8 nM
